Laboratory results reported in patent publication US20240392004A1 (IMMUNOWAKE, published 2024).

T1: mouse PD-1 (mouse, UniProt Q02242 25-167, limits assumed)
T1 construct: also called mPD-1
T1 sequence (looked up): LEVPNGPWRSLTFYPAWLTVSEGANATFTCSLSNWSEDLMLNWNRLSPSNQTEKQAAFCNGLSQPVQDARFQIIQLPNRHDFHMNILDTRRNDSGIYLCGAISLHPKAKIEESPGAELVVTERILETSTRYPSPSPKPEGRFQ

T2: human IL-2 receptor (IL-2Rα, IL-2Rβ, IL-2Rγ) (human, UniProt P01589 22-272; P14784 27-551; P31785 23-369)
T2 sequence (looked up) 1: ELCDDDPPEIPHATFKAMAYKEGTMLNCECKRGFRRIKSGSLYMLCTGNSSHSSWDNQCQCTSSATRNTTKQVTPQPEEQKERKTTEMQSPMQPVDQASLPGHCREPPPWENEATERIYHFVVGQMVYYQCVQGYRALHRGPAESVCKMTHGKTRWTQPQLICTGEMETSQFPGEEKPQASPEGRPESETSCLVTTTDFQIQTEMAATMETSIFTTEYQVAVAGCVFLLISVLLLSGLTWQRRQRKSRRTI
T2 sequence (looked up) 2: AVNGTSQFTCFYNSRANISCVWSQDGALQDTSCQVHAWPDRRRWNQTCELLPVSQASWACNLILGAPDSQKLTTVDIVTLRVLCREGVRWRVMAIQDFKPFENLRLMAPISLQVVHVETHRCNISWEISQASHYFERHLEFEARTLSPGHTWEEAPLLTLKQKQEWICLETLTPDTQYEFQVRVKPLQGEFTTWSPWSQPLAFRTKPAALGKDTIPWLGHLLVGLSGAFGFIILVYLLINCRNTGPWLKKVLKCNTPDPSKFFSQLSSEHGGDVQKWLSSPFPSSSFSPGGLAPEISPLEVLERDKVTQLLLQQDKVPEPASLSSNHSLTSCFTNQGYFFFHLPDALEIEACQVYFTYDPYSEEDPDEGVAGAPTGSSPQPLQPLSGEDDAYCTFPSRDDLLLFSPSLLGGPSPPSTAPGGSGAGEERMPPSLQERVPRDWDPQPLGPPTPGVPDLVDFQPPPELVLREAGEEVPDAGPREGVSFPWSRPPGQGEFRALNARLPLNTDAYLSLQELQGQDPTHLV
T2 sequence (looked up) 3: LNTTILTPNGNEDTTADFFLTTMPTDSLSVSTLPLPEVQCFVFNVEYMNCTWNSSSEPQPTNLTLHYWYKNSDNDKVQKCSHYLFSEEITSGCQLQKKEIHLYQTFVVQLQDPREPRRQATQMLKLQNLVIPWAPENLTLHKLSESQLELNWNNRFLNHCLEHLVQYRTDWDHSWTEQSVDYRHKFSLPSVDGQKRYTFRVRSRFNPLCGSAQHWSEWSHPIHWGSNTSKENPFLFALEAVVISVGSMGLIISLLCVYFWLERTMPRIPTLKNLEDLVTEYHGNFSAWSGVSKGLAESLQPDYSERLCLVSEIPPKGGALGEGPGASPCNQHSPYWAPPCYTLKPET

B1: IL-12(E59A/F60A)/PD-L1(mut2)-Fc (IL-12 at hinge) (Fc fusion)
chain 1: FTVTVPKDLYVVEYGSNMTIECKFPVEKQLDLAALQVYWMMEDKNIIQFVHGEEDLKVQHSSYRQRARLLKDQLSLGNAALQITDVKLQDAGVYTCLIAYKGADYKRITVKVNAPYNKINQRILVVDPVTSEHELTCQAEGYPKAEVIWTSSDHQVLSGKTTTTNSKREEKLFNVTSTLRINTTTNEIFYCTFRRLDPEENHTAELVIPELPLAHPPNERGGGGSGGGIWELKKDVYVVELDWYPDAPGEMVVLTCDTPEEDGITWTLDQSSEVLGSGKTLTIQVKAAGDAGQYTCHKGGEVLSHSLLLLHKKEDGIWSTDILKDQKEPKNKTFLRCEAKNYSGRFTCWWLTTISTDLTFSVKSSRGSSDPQGVTCGAATLSAERVRGDNKEYEYSVECQEDSACPAAEESLPIEVMVDAVHKLKYENYTSSFFIRDIIKPDPPKNLQLKPLKNSRQVEVSWEYPDTWSTPHSYFSLTFCVQVQGKSKREKKDRVFTDKTSATVICRKNASISVRAQDRYYSSSWSEWASVPCSGGGGSGGGSGGGGSRNLPVATPDPGMFPCLHHSQNLLRAVSNMLQKARQTLEFYPCTSEEIDHEDITKDKTSTVEACLPLELTKNESCLNSRETSFITNGSCLASRKTSFMMALCLSSIYEDLKMYQVEFKTMNAKLLMDPKRQIFLDQNMLAVIDELMQALNFNSETVPQKSSLEEPDFYKTKIKLCILLHAFRIRAVTIDRVMSYLNASGGGGSGGGDKTHTCPPCPAPEDEGGPSVFLFPPKPKDTLMISRTPEVTCVVVDVSHEDPEVKFNWYVDGVEVHNAKTKPREEQYNSTYRVVSVLTVLHQDWLNGKEYKCKVSNKALPAPIEKTISKAKGQPREPQVYVYPPSREEMTKNQVSLTCLVKGFYPSDIAVEWESNGQPENNYKTTPPVLDEDGSFALVSKLTVDKSRWQQGNVFSCSVMHEALHNHYTQKSLSLSPGK
chain 2: FTVTVPKDLYVVEYGSNMTIECKFPVEKQLDLAALQVYWMMEDKNIIQFVHGEEDLKVQHSSYRQRARLLKDQLSLGNAALQITDVKLQDAGVYTCLIAYKGADYKRITVKVNAPYNKINQRILVVDPVTSEHELTCQAEGYPKAEVIWTSSDHQVLSGKTTTTNSKREEKLFNVTSTLRINTTTNEIFYCTFRRLDPEENHTAELVIPELPLAHPPNERGGGGSGGGDKTHTCPPCPAPEKKGGPSVFLFPPKPKDTLMISRTPEVTCVVVDVSHEDPEVKFNWYVDGVEVHNAKTKPREEQYNSTYRVVSVLTVLHQDWLNGKEYKCKVSNKALPAPIEKTISKAKGQPREPQVYVLPPSREEMTKNQVSLLCLVKGFYPSDIAVEWESNGQPENRYMTWPPVLDSDGSFFLYSKLTVDKSRWQQGNVFSCSVMHEALHNHYTQKSLSLSPGK
notes: also called IL-12(E59A/F60A)/PD-L1(I54Q/E58M/R113T/M115L/S117A/G119K)-Fc
B2: IL-2(R38D/K43E/E61R)/PD-L2-Fc immunomodulatory molecule (Fc fusion)
chain 1: LFTVTVPKELYIIEHGSNVTLECNFDTGSHVNLGAITASLQKVENDTSPHRERATLLEEQLPLGKASFHIPQVQVRDEGQYQCIIIYGVAWDYKYLTLKVKASYRKINTHILKVPETDEVELTCQATGYPLAEVSWPNVSVPANTSHSRTPEGLYQVTSVLRLKPPPGRNFSCVFWNTHVRELTLASIDLQSQMEPRTHPTGGGGSAPTSSSTKKTQLQLEHLLLDLQMILNGINNYKNPKLTDMLTFEFYMPKKATELKHLQCLERELKPLEEVLNLAQSKNFHLRPRDLISNINVIVLELKGSETTFMCEYADETATIVEFLNRWITFCQSIISTLTDKTHTCPPCPAPEDEGGPSVFLFPPKPKDTLMISRTPEVTCVVVDVSHEDPEVKFNWYVDGVEVHNAKTKPREEQYNSTYRVVSVLTVLHQDWLNGKEYKCKVSNKALPAPIEKTISKAKGQPREPQVYVYPPSREEMTKNQVSLTCLVKGFYPSDIAVEWESNGQPENNYKTTPPVLDEDGSFALVSKLTVDKSRWQQGNVFSCSVMHEALHNHYTQKSLSLSPGK
chain 2: LFTVTVPKELYIIEHGSNVTLECNFDTGSHVNLGAITASLQKVENDTSPHRERATLLEEQLPLGKASFHIPQVQVRDEGQYQCIIIYGVAWDYKYLTLKVKASYRKINTHILKVPETDEVELTCQATGYPLAEVSWPNVSVPANTSHSRTPEGLYQVTSVLRLKPPPGRNFSCVFWNTHVRELTLASIDLQSQMEPRTHPTGGGGSDKTHTCPPCPAPEKKGGPSVFLFPPKPKDTLMISRTPEVTCVVVDVSHEDPEVKFNWYVDGVEVHNAKTKPREEQYNSTYRVVSVLTVLHQDWLNGKEYKCKVSNKALPAPIEKTISKAKGQPREPQVYVLPPSREEMTKNQVSLLCLVKGFYPSDIAVEWESNGQPENRYMTWPPVLDSDGSFFLYSKLTVDKSRWQQGNVFSCSVMHEALHNHYTQKSLSLSPGK
notes: also called ligand-IL-2 mutant-PD-L2-Fc; IW-#11

Legend:
human PD-1 = biological target: T3, human PD-1 (human, UniProt Q15116 25-167, limits assumed); assay: rounded restatement of Tables 14 and 15
T3 construct: also called hPD-1
T3 sequence (Q15116 25-167 limits assumed): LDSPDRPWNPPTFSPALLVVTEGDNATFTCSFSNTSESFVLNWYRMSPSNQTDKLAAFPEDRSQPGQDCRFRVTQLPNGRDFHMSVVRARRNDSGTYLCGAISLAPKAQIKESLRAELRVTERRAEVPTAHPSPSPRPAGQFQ

mouse PD-1 [1] = biological target: T1, mouse PD-1; assay: rounded restatement of Tables 14 and 15
[2] = biological target: T2, human IL-2 receptor (IL-2Rα, IL-2Rβ, …); assay: cell-based or functional assay
[3] = biological target: human IL-12 receptor complex (IL-12Rβ1 and IL-12Rβ2) (human, UniProt P42701 24-662; Q99665 24-862); assay: cell-based or functional assay
human IL-12 receptor complex (IL-12Rβ1 and IL-12Rβ2), sequence (Q99665 24-862, chain 2 of 2, other chains not shown): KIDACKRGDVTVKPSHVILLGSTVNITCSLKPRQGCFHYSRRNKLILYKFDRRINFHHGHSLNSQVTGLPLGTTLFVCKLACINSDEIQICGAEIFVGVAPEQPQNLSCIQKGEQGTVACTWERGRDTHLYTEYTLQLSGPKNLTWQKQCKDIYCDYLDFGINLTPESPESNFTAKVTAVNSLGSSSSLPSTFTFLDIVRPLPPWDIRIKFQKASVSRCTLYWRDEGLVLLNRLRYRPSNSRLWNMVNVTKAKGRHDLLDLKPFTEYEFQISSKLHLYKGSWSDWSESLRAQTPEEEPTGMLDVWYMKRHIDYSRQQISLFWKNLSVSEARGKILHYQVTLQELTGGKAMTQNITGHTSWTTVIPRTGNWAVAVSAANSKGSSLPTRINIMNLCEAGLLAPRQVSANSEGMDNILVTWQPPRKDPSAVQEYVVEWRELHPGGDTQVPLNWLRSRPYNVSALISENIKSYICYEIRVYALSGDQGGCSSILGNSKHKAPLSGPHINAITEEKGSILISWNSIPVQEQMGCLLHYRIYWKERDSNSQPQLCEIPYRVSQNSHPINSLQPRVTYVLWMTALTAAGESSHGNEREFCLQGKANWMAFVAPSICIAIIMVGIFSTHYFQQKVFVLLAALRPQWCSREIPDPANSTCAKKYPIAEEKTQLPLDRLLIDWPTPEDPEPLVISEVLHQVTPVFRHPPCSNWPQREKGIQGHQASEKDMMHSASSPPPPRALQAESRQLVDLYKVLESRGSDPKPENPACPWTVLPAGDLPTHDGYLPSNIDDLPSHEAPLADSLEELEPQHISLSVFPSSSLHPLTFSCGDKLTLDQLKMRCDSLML

[4] = biological target: T4, human PD-1 on cells (HEK-PD-1 reporter cells; activated PBMC) (human, UniProt Q15116 25-288); assay: cell-based or functional assay
T4 sequence (Q15116 25-288): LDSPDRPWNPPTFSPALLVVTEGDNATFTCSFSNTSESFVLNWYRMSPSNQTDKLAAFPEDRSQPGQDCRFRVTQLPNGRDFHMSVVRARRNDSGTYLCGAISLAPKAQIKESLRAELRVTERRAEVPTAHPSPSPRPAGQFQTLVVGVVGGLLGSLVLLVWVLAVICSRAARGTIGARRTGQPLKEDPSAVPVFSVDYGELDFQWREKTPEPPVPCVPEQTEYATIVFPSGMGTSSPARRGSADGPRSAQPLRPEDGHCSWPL

mouse PD-1 [5] = biological target: T1, mouse PD-1; assay: same value as Table 14 (measured in PD-L1-Fc format)
[6] = biological target: T2, human IL-2 receptor (IL-2Rα, IL-2Rβ, …); assay: FACS on HEK-Blue IL-2 cells (IL-2 receptor, no PD-1)
[7] = biological target: T2, human IL-2 receptor (IL-2Rα, IL-2Rβ, …); assay: cell-based or functional assay; remark: listed apart in the source
[8] = biological target: T4, human PD-1 on cells (HEK-PD-1 reporter …); assay: cell-based or functional assay; remark: listed apart in the source

Kd (human PD-1) [nM]	Kd (mouse PD-1 [1]) [nM]	IL-2 signal transduction, HEK-IL-2 [2] [%]	IL-12 signal transduction, HEK-IL-12 [3] [%]	IL-2 signal transduction, HEK-IL-2-PD-1 [4] [%]	IL-12 signal transduction, HEK-IL-12-PD-1 [4] [%]	Kd (mouse PD-1 [5]) [nM]	binding result [6]	Percent IL-2 signal transduction (HEK-IL-2 reporter assay) [7] [%]	Percent IL-2 signal transduction (HEK-PD-1-IL-2 reporter assay) [8] [%]	Binder
~100	~100	< 0.1	< 0.2	< 0.1	24	120	–	–	–	B1
–	–	–	–	–	–	–	no binding	2.4	43.5	B2
